# Reference: PMC8861093 (2022)
# Target: WDR5 (Homo sapiens, UniProt P61964)
# Experiment: biolayer interferometry
binder,measurement,value
LNPHGAARAEVYLR [MLL4Win],Kd,460 nM
